# Numbered stars: 1 amine (or outer) side, 2 acyl side, 3 side chain; on linkers, the order of the positions; unused ones are H or OH. Bridge positions count the residues as written; N and C are the ends. Square brackets hold non-standard residues; d marks the D form. Ends that are not written are not given here. Hse(Me) = O-methyl-homoserine, COCC[C@H](N[*:1])C(=O)[*:2]; TATA = O=C(CC[*:1])N1CN(C(=O)CC[*:2])CN(C(=O)CC[*:3])C1; Phe(4-Cl) = N[C@@H](Cc1ccc(Cl)cc1)C(=O)O; Hyp = O=C(O)[C@@H]1C[C@@H](O)CN1; hArg = N=C(N)NCCCC[C@H](N)C(=O)O; PYA = propargyl-acid
# Molecular target: T1, Biotinylated Human ACE2, His, Avitag protein (ACROBiosystems, AC2-H82E6) (human, UniProt Q9BYF1 18-740)
# T1 construct: also called biotinylated ACE2; ACE2 protein; not shown: His tag and Avitag
# Assay: SPR single cycle kinetics, biotinylated ACE2 captured on CAP chip, peptide as analyte
# Experimental: (§1) Binding of bicyclic peptides of the invention to Biotinylated Human ACE2, His, Avitag™ protein (ACROBiosystems, AC2-H82E6) was assessed by a SCK analysis. Experiments were performed at 25° C. on a Biacore T200 (Cytiva) running Biacore T200 Control software V2.0.1 and Evaluation software V3.0 (Cytiva). HBS-EP+ (Cytiva) was used as running buffer as well as for ligand and analyte dilutions. Biotin CAPture reagent was loaded onto a Series S Sensor CAP Chip (Cytiva) followed by loading of the ACE2 protein at a flow rate of 2 μl/min. The surface was then allowed to stabilise.
# (§2) SCK data was obtained using bicyclic peptides of the invention as analytes injected at a flow rate of 30 μl/min to minimise any potential mass transfer effects. […] The association phases were monitored for 100 seconds for each of the four injections of increasing concentrations of analyte and a single dissociation phase was measured for 400 seconds following the last injection of analyte. Regeneration of the sensor chip surface was conducted using the CAP Chip standard regeneration buffer (Cytiva).
# (§3) The signal from the reference channel Fc1 (no ACE2 captured) was subtracted from that of Fc2, Fc3 and Fc4 to correct for bulk effect and differences in non-specific binding to a reference surface. The signal from each blank run (Fc2-ACE2 captured but no antigen) was subtracted to correct for differences in surface stability. […]
# T1 sequence (Q9BYF1 18-740 limits assumed): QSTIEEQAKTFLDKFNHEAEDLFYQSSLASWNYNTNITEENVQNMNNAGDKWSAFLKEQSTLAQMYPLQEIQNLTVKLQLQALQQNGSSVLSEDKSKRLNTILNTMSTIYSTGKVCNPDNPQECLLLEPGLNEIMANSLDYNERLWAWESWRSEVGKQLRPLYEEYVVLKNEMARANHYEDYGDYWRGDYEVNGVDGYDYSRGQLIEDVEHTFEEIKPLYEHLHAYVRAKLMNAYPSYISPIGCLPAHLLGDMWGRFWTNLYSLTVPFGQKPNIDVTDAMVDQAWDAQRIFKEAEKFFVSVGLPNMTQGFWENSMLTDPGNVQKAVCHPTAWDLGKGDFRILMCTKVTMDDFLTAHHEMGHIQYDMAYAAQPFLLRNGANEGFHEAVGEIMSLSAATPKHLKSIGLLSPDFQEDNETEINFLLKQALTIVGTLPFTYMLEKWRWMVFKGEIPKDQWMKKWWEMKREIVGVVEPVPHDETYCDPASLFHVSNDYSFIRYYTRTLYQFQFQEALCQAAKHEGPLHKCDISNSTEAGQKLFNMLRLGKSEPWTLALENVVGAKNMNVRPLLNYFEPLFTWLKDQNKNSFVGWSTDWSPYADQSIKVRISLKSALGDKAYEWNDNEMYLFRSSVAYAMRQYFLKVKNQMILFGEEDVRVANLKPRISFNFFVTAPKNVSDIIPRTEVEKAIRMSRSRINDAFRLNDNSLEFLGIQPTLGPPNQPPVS
row,Binder,binding result
1,"Ac-CNEVLCSWA[hArg]ANSFC (linker 1-6-15 via TATA, bicyclic peptide, TATA scaffold) [BCY18783]",no binding
2,"Ac-CNDVLCSWA[hArg]ANSFC (linker 1-6-15 via TATA, bicyclic peptide, TATA scaffold) [BCY18659]",no binding

# Molecular target: T1, Biotinylated Human ACE2, His, Avitag …
# Assay: SPR single cycle kinetics, ACE2 captured on CAP chip, peptide analyte; geometric mean
# Experimental: as §1, §2
# (§4) The signal from the reference channel Fc1 (no ACE2 captured) was subtracted from that of Fc2, Fc3 and Fc4 to correct for bulk effect and differences in non-specific binding to a reference surface. The signal from each blank run (Fc2-ACE2 captured but no antigen) was subtracted to correct for differences in surface stability. The double referenced sensorgrams were fitted with the Langmuir (1:1) binding model (Equation 1a below) where the closeness of fit of the data to the model is evaluated using the Chi square value which describes the deviation between the experimental and fitted (observed and expected) curves (Equation 1b below).
row,Binder,Kd
1,"ACNAVLCSWARANSFCA (linker 2-7-16 via TATA, bicyclic peptide, TATA scaffold) [BCY15429]",3.4 nM
2,"Ac-CNAVLCSWA[hArg]ANSFCK(PYA) (linker 1-6-15 via TATA, bicyclic peptide, TATA scaffold) [BCY18784]",25.3 nM
3,"ACNTVLCAWARANSYCA (linker 2-7-16 via TATA, bicyclic peptide, TATA scaffold) [BCY17161]",4.2 nM
4,"ACNQVLCRWAQVNSMCA (linker 2-7-16 via TATA, bicyclic peptide, TATA scaffold) [BCY17158]",4 nM
5,"Ac-ACNAVLCSWARANSFCA (linker 2-7-16 via TATA, bicyclic peptide, TATA scaffold) [BCY17691]",3.9 nM
6,"ACNTVLCGWARANSLCA (linker 2-7-16 via TATA, bicyclic peptide, TATA scaffold) [BCY17162]",5.7 nM
7,"Ac-CN[hArg]VLCSWA[hArg]ANSFC (linker 1-6-15 via TATA, bicyclic peptide, TATA scaffold) [BCY18350]",8.3 nM
8,"Ac-CNTVLCSWA[hArg]ANSFC (linker 1-6-15 via TATA, bicyclic peptide, TATA scaffold) [BCY18657]",69.3 nM
9,"Ac-CNSVLCSWA[hArg]ANSFC (linker 1-6-15 via TATA, bicyclic peptide, TATA scaffold) [BCY18658]",6.7 nM
10,"ACNTVLCNWARYNSLCA (linker 2-7-16 via TATA, bicyclic peptide, TATA scaffold) [BCY17160]",4.2 nM

# Molecular target: T1, Biotinylated Human ACE2, His, Avitag …
# Assay: SPR single cycle kinetics, ACE2 captured on CAP chip, peptide analyte; geometric mean; * Rmax set to 10
# Experimental: as §1, §2, §4
row,Binder,Kd
1,"Ac-CNTVLCGWA[hArg]ANSLCK(PYA) (linker 1-6-15 via TATA, bicyclic peptide, TATA scaffold) [BCY18551]",15.4 nM
2,"Ac-CN[Hyp]VLCSWA[hArg]ANSFC (linker 1-6-15 via TATA, bicyclic peptide, TATA scaffold) [BCY18210]",21.1 nM
3,"Ac-CNRVLCAWATANS[Hse(Me)]CK(PYA) (linker 1-6-15 via TATA, bicyclic peptide, TATA scaffold) [BCY18349]",59.6 nM
4,"Ac-CNAVLCSWA[hArg]ANSFC (linker 1-6-15 via TATA, bicyclic peptide, TATA scaffold) [BCY18259]",23 nM
5,"Ac-CNTVLCGWA[hArg]ANSLCAK(PYA) (linker 1-6-15 via TATA, bicyclic peptide, TATA scaffold) [BCY18549]",63.9 nM
6,"Ac-CNTVLCGWARANSLCK(PYA) (linker 1-6-15 via TATA, bicyclic peptide, TATA scaffold) [BCY18550]",9.7 nM

# Molecular target: T1, Biotinylated Human ACE2, His, Avitag …
# Assay: SPR multiple cycle kinetics, biotinylated ACE2 captured on CAP chip, peptide as analyte
# Experimental: (§5) Binding of bicyclic peptides of the invention to Biotinylated Human ACE2, His, Avitag™ protein (ACROBiosystems, AC2-H82E6) was assessed by a MCK analysis. Experiments were performed at 25° C. on a Biacore T200 (Cytiva) running Biacore T200 Control software V2.0.1 and Evaluation software V3.0 (Cytiva). HBS-EP+(Cytiva) was used as running buffer as well as for ligand and analyte dilutions. Biotin CAPture reagent was loaded onto a Series S Sensor CAP Chip (Cytiva) followed by loading of biotinylated ACE2 at a flow rate of 2 μl/min. The surface was then allowed to stabilise.
# MCK data was obtained using bicyclic peptides of the invention as analytes injected at a flow rate of 30 μl/min to minimise any potential mass transfer effects. […] For each concentration, the association phases were monitored for 250 seconds and the dissociation phase was measured for 450 seconds. […]
# as §4, with “The signal from each blank run (Fc2-ACE2 captured but no antigen) was subtracted to correct for differences in surface stability.” left out, “above)” for “below)”, “1 b above).” for “1b below).”
row,Binder,binding result
1,"Ac-CNAVLCSWA[hArg][Hyp]NSFC (linker 1-6-15 via TATA, bicyclic peptide, TATA scaffold) [BCY19024]",no binding

# Molecular target: T1, Biotinylated Human ACE2, His, Avitag …
# Assay: SPR single cycle kinetics, ACE2 captured on CAP chip, peptide analyte; geometric mean; † high bulk contribution observed, treat with caution
# Experimental: as §1, §2, §3
row,Binder,Kd
1,"ACNAVLCSWARANS[Phe(4-Cl)]CA (linker 2-7-16 via TATA, bicyclic peptide, TATA scaffold) [BCY17340]",16.9 nM
2,"ACNAVLCSWARANSFCAK(PYA) (linker 2-7-16 via TATA, bicyclic peptide, TATA scaffold) [BCY17344]",3.2 nM

# Molecular target: T1, Biotinylated Human ACE2, His, Avitag …
# Assay: SPR multiple cycle kinetics, ACE2 captured on CAP chip, peptide analyte 6.25-100 nM; geometric mean
# Experimental: as §5
# MCK data was obtained using bicyclic peptides of the invention as analytes injected at a flow rate of 30 μl/min to minimise any potential mass transfer effects. A five point, two-fold dilution range from 6.25 nM to 100 nM of analyte was prepared in running buffer. For each concentration, the association phases were monitored for 250 seconds and the dissociation phase was measured for 450 seconds. Regeneration of the sensor chip surface was conducted between cycles using the CAP Chip standard regeneration buffer (Cytiva). Multiple repeats of a blank and of Bicycle were programmed into the kinetic run in order to check the stability of both the surface and analyte over the kinetic cycles.
# as §4, with “above)” for “below)”, “1 b above).” for “1b below).”
row,Binder,Kd
1,"ACNAVLCSWARANSFCA (linker 2-7-16 via TATA, bicyclic peptide, TATA scaffold) [BCY15429]",4 nM
2,"Ac-CNTVLCGWA[hArg]ANSLCK(PYA) (linker 1-6-15 via TATA, bicyclic peptide, TATA scaffold) [BCY18551]",19.5 nM
3,"ACNTVLCAWARANSYCA (linker 2-7-16 via TATA, bicyclic peptide, TATA scaffold) [BCY17161]",4.4 nM
4,"Ac-CN[Hyp]VLCSWA[hArg]ANSFC (linker 1-6-15 via TATA, bicyclic peptide, TATA scaffold) [BCY18210]",10.6 nM
5,"ACNQVLCRWAQVNSMCA (linker 2-7-16 via TATA, bicyclic peptide, TATA scaffold) [BCY17158]",8.1 nM
6,"ACNTVLCGWARANSLCA (linker 2-7-16 via TATA, bicyclic peptide, TATA scaffold) [BCY17162]",11.4 nM
7,"Ac-CNAVLCSWA[hArg]ANSFC (linker 1-6-15 via TATA, bicyclic peptide, TATA scaffold) [BCY18259]",13 nM
8,"Ac-CNAVLCSWA[hArg]SNSFC (linker 1-6-15 via TATA, bicyclic peptide, TATA scaffold) [BCY19026]",45.2 nM
9,"Ac-CNAVLCSWA[hArg]TNSFC (linker 1-6-15 via TATA, bicyclic peptide, TATA scaffold) [BCY19025]",70.7 nM
10,"Ac-CNSVLCSWA[hArg]ANSFC (linker 1-6-15 via TATA, bicyclic peptide, TATA scaffold) [BCY18658]",13.5 nM
11,"Ac-CNTVLCGWA[hArg]ANSLCAK(PYA) (linker 1-6-15 via TATA, bicyclic peptide, TATA scaffold) [BCY18549]",42.9 nM
12,"Ac-CNTVLCGWARANSLCK(PYA) (linker 1-6-15 via TATA, bicyclic peptide, TATA scaffold) [BCY18550]",15.6 nM
13,"ACNTVLCNWARYNSLCA (linker 2-7-16 via TATA, bicyclic peptide, TATA scaffold) [BCY17160]",4.8 nM

# — patent publication US20230183291A1 (Bicycle, published 2023)
